In PMC3360023, “Identification and Characterisation of a Novel Acylpeptide Hydrolase from Sulfolobus Solfataricus: Structural and Functional Insights” (PLoS ONE, 2012):

Columns and labels:
[1] = biological target: APEH-3Ss, acylpeptide hydrolase from Sulfolobus solfataricus coded by the gene sso2693 (Sulfolobus solfataricus P2); assay: SEC; Superose 12 3.2/30; enzyme treated with 0.5 M GnHCl, column equilibrated with Tris-HCl 0.05 M pH 7.5 containing 0.5 M GnHCl
[2] = biological target: APEH-3Ss, acylpeptide hydrolase from Sulfolobus solfataricus coded by the gene sso2693 (Sulfolobus solfataricus P2); assay: SEC; Superose 12 3.2/30; enzyme treated with 0.5 M GnHCl, then dialysed extensively against Tris-HCl 0.05 M pH 7.5 before gel filtration
[3] = biological target: APEH-3Ss, acylpeptide hydrolase from Sulfolobus solfataricus coded by the gene sso2693 (Sulfolobus solfataricus P2); assay: SEC; gel filtration of the native purified enzyme on two columns (Superdex 200 HR 10/30; Superose 12 PC 3.2/30), calibrated with BioRad gel filtration standards
purified protein [4] = substrate: CC(=O)N[C@@H](C)C(=O)Nc1ccc([N+](=O)[O-])cc1; assay: purified protein; type: biochemical, Saccharolobus solfataricus; conditions: 25 mM Tris-HCl pH 7.5, 90°C
purified protein [5] = substrate: CC(=O)N[C@@H](CC(C)C)C(=O)Nc1ccc([N+](=O)[O-])cc1; assay: purified protein; type: biochemical, Saccharolobus solfataricus; conditions: 25 mM Tris-HCl pH 7.5, 90°C
purified protein [6] = substrate: CC(=O)N[C@@H](Cc1ccccc1)C(=O)Nc1ccc([N+](=O)[O-])cc1; assay: purified protein; type: biochemical, Saccharolobus solfataricus; conditions: 25 mM Tris-HCl pH 7.5, 90°C
[7] = biological target: APEH-3Ss, acylpeptide hydrolase from Sulfolobus solfataricus coded by the gene sso2693 (Sulfolobus solfataricus P2)

For “APEH-3Ss, acylpeptide hydrolase from Sulfolobus solfataricus coded by the gene sso2693 (enzyme)”, the stoichiometry N [1] was 2, the stoichiometry N [2] was 3 and the stoichiometry N [3] was 3.

B1: APEH-3Ss (Saccharolobus solfataricus P2) (protein)
chain: MKPEDYYYSIKLVPEITIENGKLFHVETWIEEDKYKSSIYLNLKRITFQGNESSPKFNNDKLYFIRNEEAKSSLLEAQLYGEPKVIFTFSGKISKYEFHNKGILVIAEENTDKTLPFRAEKIKYRFDSRGLLRARQSLYLFDGKDLRRLVTGNFDVTDLATNGNRVVISATKDGDDYGLGNLYEVNIETGELNRITKEDGTVQAIAMNSEGKIAFLGHRKGLTPWASLEIMLPEEGKSYMCGKTCGNKVLTDLFDGVKDRIVFEKDLILSLGQEGGTSHIYQISDNKVDKVTSGNIMVRGFDYSNSELAYFYSTPEKPVILKYRDIEYDPNPNIKGYTPERITVNSNGVEVEGWSIIKDPNAPTILFIHGGPHMAYGYGYFIEFQFFVDNGFNVIYANPRGSQGYGEEFAKACVGDWGGKDFEDLMNFVNTVKERYSLKGKFGITGGSYGGFMTNWIVTKTSMFSAAISERSISNLVSMCGTSDIGFWFNAIESGIADPWSTEGIEKLMKMSPIYYVKNVKTPTMLIHGEEDYRCPIEQAEQFYVALKMQGVPTTLVRYQGDSHEHARRGKPKNMIDRLKTKLEWFSKYLL
notes: native enzyme purified from S. solfataricus P2 cells; full length 591 aa, not processed; N-terminus MKPEDYYYSI; 64 kDa by SDS-PAGE; homotrimer 192 kDa
In the case of B1, the Km (purified protein [4]) is reported as 800 ± 60 µM, the kcat (purified protein [4]) is reported as 14 ± 0.1 s⁻¹ and the kcat/Km (purified protein [4]) is reported as 17500 ± 100 M⁻¹ s⁻¹. For the same molecule, the Km (purified protein [5]) was 600 ± 50 µM, the kcat (purified protein [5]) was 18 ± 0.1 s⁻¹ and the kcat/Km (purified protein [5]) was 32700 ± 400 M⁻¹ s⁻¹. The Km (purified protein [6]) was 40 µM, the kcat (purified protein [6]) was 0.08 ± 0.005 s⁻¹ and the kcat/Km (purified protein [6]) was 2000 ± 10 M⁻¹ s⁻¹.

B2: SsCEI (Sulfolobus solfataricus chymotrypsin-elastase inhibitor) (natural protein)
chain: MNSESIYSMRVVSSAFKNEDFIPIKYTCDGQDLSPELEWDLVTNAKSYAIIVEDPDAPGGTFIHWVIYNITTNRLPEGVPRLYKSQYGVQGVNDFGNIGYNGPCPPKTHPPHRYYFYVYAIDTILLEIKNINADKLKSLMEGHGIERGFVMGKYKRK
With B2 the IC50 of inhibition of APEH-3Ss activity on Ac-L-pNA (0.2 mM); protease pre-incubated with increasing SsCEI for 30 min at 80°C, Tris-HCl 50 mM pH 7.5 [7] was 0.008 µM and the IC50 of inhibition of APEH-3Ss activity on Suc-GGF-pNA (0.2 mM); protease pre-incubated with increasing SsCEI for 30 min at 80°C, Tris-HCl 50 mM pH 7.5 [7] was 0.02 µM.
